Measurements published in a protein production outcome set (Wang et al. 2014).

Assay: label from the status in PepcDB records
With “MIKAVKKRKEGNMLKDLNTNQGLKPWRVESVFYCIVIVLIFIGAFKIAEAVFKPLAISIVLGFLVYPVYTFLARFKVPKFLIVFIIFFLLFSFSYLIFSFVYYSVTVLMKQLPYYQNQLAFIMKDVLSRYKVDSSVINDVNFSGYIYPFLTRAYNEIIGFTSSLVVVFLLLYFLLSEIHVFEMKLDKAFKKPISTRFIGALDTINNQIGKYLGIKILVSCLTGILVFIGLTLFGQDFPLVWAVLSFVFNFIPSIGSILAVFFIVITSLIQFYPNLNIVLYVFIYNTSIQMLIGNILEPKMQGKRLDISPFLLLCFLFFWGWLWGIVGLLISYPFTVIVKVIVDNVSWLKSFSVFLGGSEILSNISHISSKDKEI” the protein production was “failed”. In the case of “MIKDCANRYFLSFVVEVEPNTTIANNQSIGIDLGLKTFAVMSNGEKALSPDYSKHDRKIRKLQKKLARQQKDSKRRNNTRVKIAKLHNQIADTRKDFLHKLSTKIINDNQVIVLEDLNVSGMVKNSRLSRVISLQGWREFRNLCEAKSEKFSRDFRVIDRWQPTSQICSCCGFRWGKIDLSVRSILCLSCGTEQERDENASRNIEMVGMGHRHDLKRAGSDCQTTSVASYCELSRITEVESR”, the protein production is reported as “failed”. With “MIKETVFKSFDTPSALEQQLASKIASQLQEAVDARGKASLVVSGGSTPLKLFQLLSMKSIDWSDVYITLADERWVEADADASNERLVREHLLQNRASNAKFRGLKNMFSTAEAGADMAAESLSNFPRPFDVVVLGMGNDGHTCSWFPCSAELENALTTQALCVATNPTTAPHGRITLSKSAILNSRQIYLHLVGEQKLSVYRQALESDDVHAMPIRAVLAQRKTPVDVFWSA” the protein production was “not failed”. For “MIKEWATVVSWQNGQAVVSCDVKASCSSCASRAGCGSRVLNKLGPQTTHTIVVPSAEPLAPGQKVELGIAEKSLLGSALLVYMSPLAGLFLCAALFQMLFGSDLAALSGAVLGGVGGFLVARGYSRKLAERDAWQPVILNVALPPDLVRVETTSIETRQ”, the protein production was “failed”. With “MIKGTGHMIVNIANDRGMSIDSIRKTIKESVLIAYKKYFGSNENAFIKFDDDTGDLSVYAKKKIVKEVKDSLLEILEKDISKENIVEGDYAYIEINPKVFDRLSIQVAKQRTKNDLQGIEDNEILSEFKSKLNKVVIGYVQQNRNGDLYVNLGLEHHHHHH” the protein production was “not failed”. In the case of “MIKHPLKILFMHGLDSSRESTKFHAIESTNKFCITIDYRNLSYNTVADFYQNTIETIQPDLLIGHNLGGYWALKLSSQYHLAAIVANPSLAPLFRDDYPSLTSKELDTDSPKIAYIELGDESLNMYDIQNVLEDYMIVDSIEGGHHRLENPSKLNILIDHIQSEYFSHTIR”, the protein production is reported as “failed”. In the case of “MIKIVTDNFLYEKEKVLALRYMYDSAKKPGITIITVTNKQKYIKNIMDNFRRCLYPKKEFIIILNDTKLQTSLYKNYFSKTKNLKLFKVDSSYSLGECLNLAISKSNYNYIAKMDDDDYYGSHYILDSMNAFNYTDASIIGKATHFIYFEDRTLLNLWCQGNENTYATSVAGATFVMKKSIFNKVKFNSLNNGEDIDLLSQCNNLGIKIYSCSKFNYVYNRHASPDNHSWKISNDLLVKRSIKLCITKSYKRIVHILEHHHHHH”, the protein production is reported as “failed”. For “MIKLIATDIDGTLVKDGSLLIDPEYMSVIDRLIDKGIIFVVCSGRQFSSEFKLFAPIKHKLLYITDGGTVVRTPKEILKTYPMDEDIWKGMCRMVRDELPACDYFAATPDFCFAEDGGSPIFHLLRDSYGFEMREVDDITRLDRNDIIKFTVFHPDKCEELCTPVFIPAWNKKAHLAAAGKEWVDCNAKGVSKWTALSYLIDRFDLLPDEVCCFGDNLNDIEMLQNAGISYAVSNARQEVIAAAKHTCAPYWENGVLSVLKSFL”, the protein production was “not failed”. With “MIKSILDYLLTLHPVLLGLLGSTFTWFTTAFGAAAVFFFRKVDNKIMDAMLGFSAGIMIAASFFSLIQPAIERAEELGYITWVPAVFGFLVGAFFIYIVDVFVPDLDKLTFIDEDLTKHGKKDFLLFTAVTLHNFPEGLAVGVAFGALASNPDIQTLVGAMLLTLGIGIQNIPEGAAISLPLRRGNVALAKCFNYGQMSGLVEIVGGLMGAYAVYSFTRILPFALAFSAGAMIYVSIEQLIPEAKRKDIDNKVPSIFGVIGFTLMMFLDVSLG” the protein production was “failed”. In the case of “MILELQNAILEMIAKGEPLAATIEQLCLKVEAAVPGIIASVLTFDGSRLHTLAGPSLPPDYSAAVDNLEAGPLAGSCGAAAYFGEAVVVTDIETDPRWQDFKSLVLPLGLKACWSSPIKRGERVIGSFAFYYRDHRGPKALERDLVEACVHLCTIAIDREERVMERQRLTYSDALTGLSNRARFNQLLAEDLPRSGRAWGILLVDIDNLKLVNDTFGHAAGDALIQVVADRVATTAGSQNTFRLGGDEFAVIVSDDKDLDLNARATDILKALSSPSTCDGHVVFPAATIGGALAETETNPDQTRQNADLALYHAKEHNRGRYVQHYPGLGTALTRRFRAVRDVGVALEDDRIDAHYQPILRLDTREIVGFEALCRMTTPSGEIIAAAHFHEATKDAHIAAELTQRMLLRVARDIRSWLARGLPLQHVGINLSAADFRGGNLQDRLCRIFGEAEVPLKHIILEVTESVYLGQRDYVVADEIKALRSKGLRVALDDFGTGYASLTHLLTVPVDIIKIDKSFIDRMVPGDAGTFIVEGLIGIADKLGIRVVAEGIETELQAVQLSQLGCKLGQGYLFSKAVDRTVAAAILEQHGQRLDQDKTRAGAL”, the protein production is reported as “failed”. For “MILFSPVARDSAAGQAAALRAPVSLQDDTLKIFGFDDQSVGQPLSGGTDILACLTLFNEPAEAVAGTLAFLAANQDMLASRNGPIQRLEVAIVLDGRDRVHPETEALFNRLGFDLDWGCDPEAAGIGQHGADEAQVRVQTRLIPVDLLTGVSGNPLRVHLAVKDRNRGKLDSHAFFFRSLAERLQPDFVLQIDAGSRPVADCLPALLAQMEREPDCAALATNIVMEDAALTDWLQSWQQADFLWQKLSDWPIGNGLGYLEVVPGQASLLRMSALRRGANGDPLAAYLRGLSRPKSLMEANLFLAEDRIIGAEIVKSHPACTIRYHHDANLVTDGCATVGELLRQRRRWTNSTLVARLVAIGSLADLLWHGRLPPARWCSMALALAWTLLQLLEQWFIPASLALLVSLTSGFWQDEAKNGVAGQGLAWGMATGVLLFWLYCLASMKGREGERSLSRRLHGGLHGLGLGILLACTVLGFAICLVEVGPVIQGAILTVALILGMAVWHHSSRGMSDLLRVFVLYIPSAPVASFYLLSYALANFHDVSWGTKGLVGDIKAVIPAGWRRMRLRLLILWVVSNTALVWLVMGVVPGGAISVLHYACLPVVGQIAIASLLLLSASCRKPVSPSPEVTVRAGSGPHLHR”, the protein production was “failed”. In the case of “MILIRYLIKEVFKSQIAILLILLLIFFSQQFVRVLGAAANGNVPADLVFSLLGLGMPTMAQLMLPLCLFIAILLTFGRLYAESEITVMRACGVGQRILVKVALIMSLLTAGIAAYNALWLSPWAIQKQVNMVEDAKANPTVGVLSSGQFISTNNNNVVLFIDKIKDNQIRNVYLFQMTPQKQTKPSVITAEKGELIALPNGDQVLNLKNTKRVEGTSALPDFRITHFDEYHAYLGYQSAENTNDEVAELTLSQLIDLDSSSAKAELHWRITLILAVPLMALIAVPLSRVNPRQGRFAKILPALLLYLIYFLLQSSFKSAGSAGKLEAELLMPLVNIGFFLLAVVLNSWDSEIMYKFRYLFSKKGSAKDDKYP”, the protein production is reported as “failed”. For “MILLEGSYREMGRQYGGLMKTELLSEYAMLTKTLEDRGYSLDYLRWYASAGTQFQPERMKEITRGMAETTGLSEADLSILYYGPALYISMPAGCSYLAVWDTYTTDGSVVLSRNWDLPDLLDPFNPYYVLAVCRPTDGSNGVATFGPAGSRPETLMNSAGLFIADDNSGLAPVGQDDRPDLISEFFRLMLDYSDLDGLKTGVLTTRPDVAWIVDVGGPDGAYVFEVGLNETKVRIGDGVVAAANHFVDPSWDLTTPPGEHSLTRYANLLSQAEAAKGSIDAEEMMQIRDVLMTDDGATFRHSELFGYPYSSNHQVVFVPATRTLWMKVIDLDWQKVELAPLFAM”, the protein production was “failed”. For “MILLTYLIGILIGLSLTAPPGPVNSVISTESMKSKAHGVSVGAGAMTADLVFFVIVFRFGAFIPVLALHALYLAGAVLLLYISYSVLKSKISRRTRKGNYLVGLTMGITNPFQILWWMTVGLFFIRYFHIASIAGLFTGIIIWILSFPFVMNKYARRFERYVKIFSFAVLFSFAIYLLYSGVVYFLR”, the protein production was “failed”. In the case of “MILLVPILIITLMYFMFENVPHRPGTPSGFNTACLVLLGLFPLFVMFVITAITMQRERASGTLERILTTPLRRLDLLAGYGTAFSIAAAAQATLACIVAFWFLGFDTAGSPVWVFAIAIVNAVLGVGLGLLCSAFARTEFQAVQFIPLVMVPQLLLAGIIVPRALMPTWLEWISNVMPASYALEALQQVGAHPELTGIAVRDVVVVLSFAVASLCLAAVTLRRRTS”, the protein production is reported as “failed”. For “MILLYLHIYEQKGSGTLNPVAFTLFGLEIRWYGILIATGVILGLFMAYSNSKLREIEYDSVLDIILISLPIGIIGARLYYVIFQFKSYNGNIIDMINIRNGGLAIHGGLIFGCLAAYIYSRYKKLSFLKLMDIAAPSIILAQALGRWGNFFNGEAHGGPVTYSFIEKFPKFIQKGMTIDGMYYNPTFLYESTWDFVTFIILMLLIRKCKNKGVVFFGYVGLYSLGRFFIEGMRTDSLMLGPIRVAQLVSILGMLISLGFITFSYVKTKRISK”, the protein production was “failed”. With “MILPWLILIPFIGGLLCWLGERFGSTLPRWIALLTMTLELALGLWLWATGNFGYAPVPGADPTWALEFHHPWITRFGIDVHLALDGLSLLMILLTGLLGVLSVLCSWKEIQRKVGFFHLNLMWILGGVVGVFLAIDLFMFFFFWEMMLVPMYFLIALWGHSSSDGKKTRIYAATKFFIFTQASGLIMLVAILGLVLVHFNQTGVITFAYADLLKTKLAPGTEYILMLGFFIAFAVKLPVVPLHSWLPDAHAQAPTAGSVDLAGILLKTAAYGLLRFALPLFPNASAEFAPIAMALGLVGIFYGAFLAFAQTDIKRLIAFSSVSHMGFVLIGIYSGSQQALQGVLIQMIAHGLSAAALFILSGQLYERLHTRDMREMGGLWSRIAYIPAISLFFAAASLGLPGTGNFVGEFLILLGSFASAPWITAIATSGLVFGSVYSLIMIHRAYFGPAKSDEVLKGMDGREMIMVLGLAVLLVVLGVFPQPFLDTSAATMHGVQQWLGTAFTQLASAR” the protein production was “not failed”. With “MILRSWARGVTLATICMFSLSSGVILAKNNRPTPLPTYQYPDVYNNYLQPVATAIDYHSGMVYLFNYENDKLIIVDPTSLSGWPGNVPLQHTLVFPEGDKIFITSDNTEEHAAYIIILKVNDINWDAGTVSLAVETVVAADNPGTPTEFPFVEPVNNVQAIPNWLVGRGTTQIHGPTILPYSDFVYLTELTSDRIRVINRKTNEFVSGVDPIAIPGYTEQTHGINFNRSGTIGLGTGYFFDNSVIDVYKPNRETGELQTIGQIRLGDEKRHAAFTHFVYWLDERYAVTASMQFDKTSLTPTTTKKIIPPSVWLLDTLEGTATKILDHTNHANGKGIFRSPSDIAVVNGKLYIAEEDSLDYTFANDGYISVFDLTDRYKPRFLKRLKPGRELPTGYAVAHTISPTPDNRYLIVASWVSGYVLKIDTETDTVVKIWGPNDGLIKPHGIYTAGGLR” the protein production was “failed”. In the case of “MILSIDSNDANTAPLHKKTISSLSGAVESMMKKLEDVGVLVARILMPILFITAGWGKITGYAGTQQYMEAMGVPGFMLPLVILLEFGGGLAILFGFLTRTTALFTAGFTLLTAFLFHSNFAEGVNSLMFMKNLTISGGFLLLAITGPGAYSIDRLLNKKW”, the protein production is reported as “failed”. With “MILSNYPLRDRKDSTMGSKTKIVVIRCKELIAGIILSVIALAILALIVISLMNRNTHDTTPPSGRYTAGVYSSSVILNGNPVDIRVTVDEDNINNIEMVNISDSVTTMYPLIQNSFEEIKSSVIANGGVEGVTYSSENKYTSVMILKAIENALDKCRTY” the protein production was “failed”. With “MILTLLQNGDYETARTQALTELKNNSDNAELHYYAAWAHDALGKEDAAIPFYEKALQLGLPADSRKEAYIGLGSTYRITGQPEKSIRLFETALQEFPDNNALRTFSVMAKYNQGLEKEALEEALMLLTQTTSDEDILSYKKAIQFYAQDLDATFHLEHHHHHH” the protein production was “not failed”. For “MILVATKPKDSRGSSSDEMMMNDLDEIIFGENSLGHSSSASGNDQKKQKSSKNNELIHL”, the protein production was “failed”.
